Source: patent US6998106
One block for each substance: values may come before it.

Tests used:
[1] = biological target: EGFRvIII (form used in the assay not stated) (UniProt P00533); test: surface plasmon resonance
[2] = biological target: EGFRvIII (form used in the assay not stated) (UniProt P00533); test: SIPC-labeled scFv; immunoreactive fraction, antigen source not stated
[3] = biological target: EGFRvIII (form used in the assay not stated) (UniProt P00533); test: SIPC-labeled scFv; method not stated
[4] = biological target: EGFRvIII (mutant epidermal growth factor receptor) expressed by the U87MGΔEGFR cell line (UniProt P00533); test: binding of labeled mAb to EGFRvIII-positive tumor xenograft homogenate, Lindmo method (per Example 2)
[5] = biological target: EGFRvIII (mutant epidermal growth factor receptor) expressed by the U87MGΔEGFR cell line (UniProt P00533); test: binding of radiolabeled mAb to U87MGΔEGFR cells (Scatchard analysis per Example 2)

Ka [1]: 5.5e+09 M⁻¹
Substance: L8A4 scFv dimer with a 5 amino acid linker between the VL and VH domains

immunoreactive fraction [2]: 65 to 80%
Ka [3]: 1.5e+08 M⁻¹
Substance: scFv monomer based on the L8A4 variable region, labeled with SIPC

immunoreactive fraction [4]: 69 to 89%
Ka [5]: 9.7e+08 M⁻¹
Substance: ^211 At-labeled L8A4 (anti-EGFRvIII mAb L8A4 labeled with N-succinimidyl 5-[^211 At]astato-3-pyridinecarboxylate, SAPC) (antibody)
